Experimental data as given in patent publication US10800847.

What was measured:
[1] = target: HLA-B*1401 (B64) (human); assay: Luminex iBeads (#6), IVIg diluted 1:8
[2] = target: HLA-A*6802 (A68) single antigen on Luminex beads (human); assay: Luminex single antigen bead assay, iBeads (#6), IVIg 1:4
[3] = target: HLA-A*6901 (A69) single antigen on Luminex beads (human); assay: as above
[4] = target: HLA-A*8001 (A80) single antigen on Luminex beads (human); assay: as above
[5] = target: HLA-A*7401 (A74) single antigen on Luminex beads (human); assay: as above
[6] = target: HLA-A*6901 (A69) single antigen on Luminex beads (human); assay: Luminex single antigen bead assay, regular beads (#7), IVIg 1:4
[7] = target: HLA-A*7401 (A74) single antigen on Luminex beads (human); assay: as above
[8] = target: HLA-Cw*1203 (Cw12) (human); assay: Luminex, regular beads (#7), 1:4
[9] = target: HLA-Cw*0303 (Cw9) (human); assay: Luminex, regular beads (#7), 1:4
[10] = target: HLA-A*3201 (A32) single antigen on beads (human); assay: Luminex single-antigen regular beads (#7), IVIg 1:4
[11] = target: HLA-A*3301 (A33) single antigen on beads (human); assay: as above
[12] = target: HLA-A*2902 (A29) single antigen on beads (human); assay: as above
[13] = target: HLA-A*6801 (A68) single antigen on beads (human); assay: as above
[14] = target: HLA-A*3002 (A30) single antigen on beads (human); assay: as above
[15] = target: HLA-A*6601 (A66) single antigen on beads (human); assay: as above
[16] = target: HLA-A*3303 (A33) single antigen on beads (human); assay: as above
[17] = target: HLA-A*3402 (A34) single antigen on beads (human); assay: as above
[18] = target: HLA-A*3101 (A31) single antigen on beads (human); assay: as above
[19] = target: HLA-B*1516 (B63) (human); assay: iBead MFI against regular-bead MFI, IVIg diluted 1:4
[20] = target: HLA-B*1511 (B75) (human); assay: as above
[21] = target: HLA-B*1513 (B77) (human); assay: as above
[22] = target: HLA-B*0801 (B8) (human); assay: as above
[23] = target: HLA-A*0301 (A3) on single antigen beads (human) (UniProt P04439); assay: Luminex single antigen beads, iBeads (#6), 1:8
[24] = target: Albumin on negative control beads (serum albumin, HSA/BSA) (human or bovine); assay: Luminex single antigen beads, iBeads (#6), 1:8
[25] = target: HLA-B*4101 (B41) single antigen on Luminex beads (human); assay: Luminex single antigen, iBead vs regular bead, IVIg 1:8
[26] = target: HLA-B*4701 (B47) single antigen on Luminex beads (human); assay: as above
[27] = target: HLA-B*3801 (B38) single antigen on Luminex beads (human); assay: as above
[28] = target: HLA-B*4402 (B44) single antigen on Luminex beads (human); assay: as above
[29] = target: HLA-B*4002 (B61) single antigen on Luminex beads (human); assay: as above
[30] = target: HLA-B*3501 (B35) single antigen on Luminex beads (human); assay: as above
[31] = target: HLA-B*3901 (B39) single antigen on Luminex beads (human); assay: as above
[32] = target: HLA-B*4001 (B60) single antigen on Luminex beads (human); assay: as above
[33] = target: HLA-B*3701 (B37) single antigen on Luminex beads (human); assay: as above
[34] = target: HLA-B*4501 (B45) single antigen on Luminex beads (human); assay: as above
[35] = target: HLA-B*2708 (B27) single antigen on Luminex beads (human); assay: as above
[36] = target: HLA-B*4006 (B61) single antigen on Luminex beads (human); assay: as above
[37] = target: HLA-B*4201 (B42) single antigen on Luminex beads (human); assay: as above
[38] = target: HLA-B*4403 (B44) single antigen on Luminex beads (human); assay: as above
[39] = target: HLA-B*2705 (B27) single antigen on Luminex beads (human); assay: as above
[40] = target: HLA-A*0301 (A3) on single antigen beads (human) (UniProt P04439); assay: Luminex single antigen beads, regular beads (#7), 1:8
[41] = target: Albumin on negative control beads (serum albumin, HSA/BSA) (human or bovine); assay: as above

IVIg GamaSTAN S/D (Talecris Biotherapeutics, USA) (antibody)
MFI [1]: 269 MFI

IVIg Sandoglobulin (Novartis, Basel, Switzerland) (antibody)
MFI [2]: 596 MFI | MFI [3]: 788 MFI | MFI [4]: 564 MFI | MFI [5]: 316 MFI | MFI [6]: 470 MFI | MFI [7]: 0 MFI | MFI [8]: 985 MFI | MFI [9]: 703 MFI | MFI [10]: 255 MFI | MFI [11]: 185 MFI | MFI [12]: 200 MFI | MFI [13]: 0 MFI | MFI [14]: 174 MFI | MFI [15]: 93 MFI | MFI [16]: 0 MFI | MFI [17]: 0 MFI | MFI [18]: 0 MFI | Difference % (iBead vs regular bead) [19]: -5% | Difference % (iBead vs regular bead) [20]: -13% | Difference % (iBead vs regular bead) [21]: -19% | Difference % (iBead vs regular bead) [22]: 18%

Octagam (IVIg, Octapharma, Lachen, Switzerland) (antibody)
MFI [23]: 0 MFI | MFI [24]: 1670 MFI | Difference % (iBead against regular bead MFI) [25]: -100% | Difference % (iBead against regular bead MFI) [26]: -57% | Difference % (iBead against regular bead MFI) [27]: -100% | Difference % (iBead against regular bead MFI) [28]: -82% | Difference % (iBead against regular bead MFI) [29]: -100% | Difference % (iBead against regular bead MFI) [30]: -100% | Difference % (iBead against regular bead MFI) [31]: 0% | Difference % (iBead against regular bead MFI) [32]: -100% | Difference % (iBead against regular bead MFI) [33]: -100% | Difference % (iBead against regular bead MFI) [34]: -68% | Difference % (iBead against regular bead MFI) [35]: -100% | Difference % (iBead against regular bead MFI) [36]: -97% | Difference % (iBead against regular bead MFI) [37]: -100% | Difference % (iBead against regular bead MFI) [38]: -39% | Difference % (iBead against regular bead MFI) [39]: -100% | MFI [40]: 515 MFI | MFI [41]: 2340 MFI
